Read-outs that look alike come from different tables or passages of the source.
Legend:
[1] = target: Env (gp120) of HIV-1 strain AC10.0.29 (HIV-1)
[2] = target: Env (gp120) of HIV-1 strain SC422661.8 (HIV-1)
[3] = target: Env (gp120) of HIV-1 strain TRO.11 (HIV-1)
[4] = target: Env (gp120) of HIV-1 strain T257-31 (HIV-1)
[5] = target: Env (gp120) of HIV-1 strain QH0692.42 (HIV-1)
[6] = target: Env (gp120) of HIV-1 strain ZM214M.PL15 (HIV-1)
[7] = target: Env (gp120) of HIV-1 strain ZM109F.PB4 (HIV-1)
[8] = target: Env (gp120) of HIV-1 strain ZM53M.PB12 (HIV-1)
[9] = target: Env (gp120) of HIV-1 strain ZM135M.PL10a (HIV-1)
[10] = target: Env (gp120) of HIV-1 strain ZM249M.PL1 (HIV-1)
[11] = target: Env (gp120) of HIV-1 strain Du156.12 (HIV-1)
[12] = target: Env (gp120) of HIV-1 strain ZM197M.PB7 (HIV-1)
[13] = target: Env (gp120) of HIV-1 strain ZM214M.PL15 (HIV-1); remark: listed apart in the source
[14] = target: Env (gp120) of HIV-1 strain C2101.c01 (HIV-1)
[15] = target: Env (gp120) of HIV-1 strain 3016.v5.c45 (HIV-1)
[16] = target: Env (gp120) of HIV-1 strain 3415.v1.c1 (HIV-1)
[17] = target: Env (gp120) of HIV-1 strain 928-28 (HIV-1)
[18] = target: Env (gp120) of HIV-1 strain Q259.d2.17 (HIV-1)
[19] = target: Env (gp120) of HIV-1 strain Ce703010054_2A2 (HIV-1)
[20] = target: Env (gp120) of HIV-1 strain ZM109F.PB4 (HIV-1); remark: listed apart in the source
[21] = target: Env (gp120) of HIV-1 strain Ce2060_G9 (HIV-1)
[22] = target: Env (gp120) of HIV-1 strain CNE17 (HIV-1)
[23] = target: HIV-1 Env of strain QH0692.42 (HIV-1)
[24] = target: HIV-1 Env of strain SC422661.8 (HIV-1)
[25] = target: HIV-1 Env of strain TRO.11 (HIV-1)
[26] = target: HIV-1 Env of strain CAP45.2.00.G3 (HIV-1)
[27] = target: HIV-1 Env of strain ZM214M.PL15.11 (HIV-1)
[28] = target: HIV-1 Env of strain AC10.0.29 (HIV-1)
[29] = target: HIV-1 Env of strain T257-31 (HIV-1)
[30] = target: Env (gp120) of HIV-1 strain Du172.17 (HIV-1)
[31] = target: gp160 of HIV-1 strain YU2 with a substitution of 458gp120 (HIV-1)
[32] = target: Env (gp120) of HIV-1 strain 3718.v3.c11 (HIV-1)
[33] = target: Env (gp120) of HIV-1 strain T255-34 (HIV-1)
[34] = target: Env (gp120) of HIV-1 strain CAP210.2.00.E8 (HIV-1)
[35] = target: Env (gp120) of HIV-1 strain CAP45.2.00.G3 (HIV-1)

Substance | neutralization IC50 [16] [µg/mL] | neutralization IC50 [17] [µg/mL] | neutralization IC50 [18] [µg/mL] | neutralization IC50 [19] [µg/mL] | neutralization IC50 [20] [µg/mL] | neutralization IC50 [21] [µg/mL] | neutralization IC50 [22] [µg/mL] | neutralization IC50 [30] [µg/mL] | neutralization IC50 [35] [µg/mL] | other results
NIH45-46 IgG (antibody) | 0.022 | 0.23 | 0.043 | 0.159 | 0.095 | 0.058 | 0.261 |  |  | neutralization IC50 [1]: 0.9 µg/mL; neutralization IC50 [2]: 0.05 µg/mL; neutralization IC50 [3]: 1.9 µg/mL; neutralization IC50 [4]: 0.5 µg/mL; neutralization IC50 [5]: 0.7 µg/mL; neutralization IC50 [6]: 0.3 µg/mL; neutralization IC50 [7]: 0.22 µg/mL; neutralization IC50 [8]: 0.65 µg/mL; neutralization IC50 [9]: 0.36 µg/mL; neutralization IC50 [10]: 0.02 µg/mL; neutralization IC50 [11]: 0.01 µg/mL; neutralization IC50 [12]: 0.14 µg/mL; neutralization IC50 [13]: 0.05 µg/mL; neutralization IC50 [14]: 12.8 µg/mL; neutralization IC50 [15]: > 30 µg/mL
NIH45-46 IgG (wild type) (antibody) |  |  |  |  |  |  |  |  |  | In vitro neutralization IC50 [23]: 0.7 µg/mL; In vitro neutralization IC50 [24]: 0.05 µg/mL; In vitro neutralization IC50 [25]: 1.9 µg/mL; In vitro neutralization IC50 [26]: > 50 µg/mL; In vitro neutralization IC50 [27]: 0.5 µg/mL; In vitro neutralization IC50 [28]: 0.9 µg/mL; In vitro neutralization IC50 [29]: 0.5 µg/mL
NIH45-46^G54F IgG (antibody) | < 0.001 | 0.11 | 0.009 | 0.02 | 0.022 | 0.022 | 0.075 | 16 |  | 
NIH45-46^G54W IgG (antibody) | < 0.001 | 0.06 | < 0.001 | 0.027 | 0.002 | 0.005 | 0.036 | 0.9 | 32.2 | neutralization of pseudovirus carrying mutant gp160 [31]: > 1500 fold; improvement of neutralization potency over NIH45-46 [32]: 2000 fold; improvement of neutralization potency over NIH45-46 [33]: > 700 fold; neutralization IC50 [34]: > 50 µg/mL
NIH45-46^G54Y IgG (antibody) | < 0.001 | 0.12 | 0.009 | 0.022 | 0.026 | 0.021 | 0.073 |  | > 50 | 
